Changes are numbered by the printed parent chain. Names may count otherwise.
T1: recombinant human soluble gpNMB (recombinant human gpNMB-FLAG-His) (human, UniProt Q14956 23-498)
T1 sequence: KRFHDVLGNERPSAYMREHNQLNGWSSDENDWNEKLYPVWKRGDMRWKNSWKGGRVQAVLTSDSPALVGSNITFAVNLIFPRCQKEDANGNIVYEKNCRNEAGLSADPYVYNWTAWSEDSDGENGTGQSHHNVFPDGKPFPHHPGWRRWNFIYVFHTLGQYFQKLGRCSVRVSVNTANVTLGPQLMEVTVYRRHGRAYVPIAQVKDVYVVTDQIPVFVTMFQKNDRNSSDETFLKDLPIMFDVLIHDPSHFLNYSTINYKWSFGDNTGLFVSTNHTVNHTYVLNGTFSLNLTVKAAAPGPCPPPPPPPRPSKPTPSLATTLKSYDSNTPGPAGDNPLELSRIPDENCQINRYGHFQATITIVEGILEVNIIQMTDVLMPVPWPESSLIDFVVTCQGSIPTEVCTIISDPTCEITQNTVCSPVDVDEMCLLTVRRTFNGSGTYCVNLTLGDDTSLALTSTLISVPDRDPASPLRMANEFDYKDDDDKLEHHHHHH

T2: human gpNMB (Human Osteoactivin, His-tag, AcroBioSystems) (human, UniProt Q14956-2 23-486, limits assumed)
T2 sequence (looked up): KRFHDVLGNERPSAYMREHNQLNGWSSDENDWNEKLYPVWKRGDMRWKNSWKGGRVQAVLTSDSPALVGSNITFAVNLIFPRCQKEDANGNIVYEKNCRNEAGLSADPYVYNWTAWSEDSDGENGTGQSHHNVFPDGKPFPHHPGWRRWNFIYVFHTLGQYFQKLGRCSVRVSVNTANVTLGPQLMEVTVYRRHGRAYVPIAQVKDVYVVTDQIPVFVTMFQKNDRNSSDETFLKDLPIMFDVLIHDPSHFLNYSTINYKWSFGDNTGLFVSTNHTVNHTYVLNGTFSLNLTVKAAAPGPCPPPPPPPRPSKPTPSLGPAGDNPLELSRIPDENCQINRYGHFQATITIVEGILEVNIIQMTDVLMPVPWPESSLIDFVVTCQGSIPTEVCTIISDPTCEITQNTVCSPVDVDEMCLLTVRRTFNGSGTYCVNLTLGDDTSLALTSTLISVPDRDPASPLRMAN

B1: hGPN18-2_H2L3 VL H98A (antibody, V domains shown)
VH: QVQLVQSGPGLVQPTQTLTLTCSFSGFSLSTSVMGVGWIRQPSGKGLEWLADIWWDDDKDYNPSLKSRLTISKDTSKNQVVLTMTNMDTVDTATYYCARTYYSNYEYYGMDYWGQGTLVTVSS
VL: DIVMTQSPDSLAVSLGERATINCRSSQTIILSNGNTYLEWYQQKPGQPPKLLIYKVSNRFSGVPDRFSGSGSGTDFTLTISSLQAEDVAVYYCFQGSAVPFTFGSGTKLEIKR
B2: hGPN18-2_H2L3 VL T102A (antibody, V domains shown)
VH: B1 VH
VL: B1 VL with A98H, T102A
B3: hGPN18-2_H2L3 VL N33A (antibody, V domains shown)
VH: B1 VH
VL: B1 VL with N33A, A98H
B4: hGPN18-2_H2L3 VL T28A (antibody, V domains shown)
VH: B1 VH
VL: B1 VL with T28A, A98H
B5: hGPN18-2_H2L3 VL L31A (antibody, V domains shown)
VH: B1 VH
VL: B1 VL with L31A, A98H
B6: hGPN18-2_H2L3 VL S25A (antibody, V domains shown)
VH: B1 VH
VL: B1 VL with S25A, A98H
B7: hGPN18-2_H2L3 VL S97A (antibody, V domains shown)
VH: B1 VH
VL: B1 VL with S97A, A98H
B8: hGPN18-2_H2L3 VL L38A (antibody, V domains shown)
VH: B1 VH
VL: B1 VL with L38A, A98H
B9: hGPN18-2_H2L3 VL S57A (antibody, V domains shown)
VH: B1 VH
VL: B1 VL with S57A, A98H
B10: hGPN18-2_H2L3 VL V99A (antibody, V domains shown)
VH: B1 VH
VL: B1 VL with A98H, V99A
B11: hGPN18-2_H2L3 VL R24A (antibody, V domains shown)
VH: B1 VH
VL: B1 VL with R24A, A98H
B12: hGPN18-2_H2L3 VL S26A (antibody, V domains shown)
VH: B1 VH
VL: B1 VL with S26A, A98H
B13: hGPN18-2_H2L3 VL Q27A (antibody, V domains shown)
VH: B1 VH
VL: B1 VL with Q27A, A98H
B14: hGPN18-2_H2L3 VL S32A (antibody, V domains shown)
VH: B1 VH
VL: B1 VL with S32A, A98H
B15: hGPN18-2_H2L3 VL S61A (antibody, V domains shown)
VH: B1 VH
VL: B1 VL with S61A, A98H
B16: hGPN18-2_H2L3 VL P100A (antibody, V domains shown)
VH: B1 VH
VL: B1 VL with A98H, P100A
B17: hGPN18-2_H2L3 VL I29A (antibody, V domains shown)
VH: B1 VH
VL: B1 VL with I29A, A98H
B18: hGPN18-2_H2L3 VL Q95A (antibody, V domains shown)
VH: B1 VH
VL: B1 VL with Q95A, A98H
B19: hGPN18-2_H2L3 VL I30A (antibody, V domains shown)
VH: B1 VH
VL: B1 VL with I30A, A98H
B20: hGPN18-2_H2L3 VL N58A (antibody, V domains shown)
VH: B1 VH
VL: B1 VL with N58A, A98H
B21: hGPN18-2_H2L3 VL R59A (antibody, V domains shown)
VH: B1 VH
VL: B1 VL with R59A, A98H
B22: hGPN18-2_H2L3 VL T36A (antibody, V domains shown)
VH: B1 VH
VL: B1 VL with T36A, A98H
B23: hGPN18-2_H2L3 VL K55A (antibody, V domains shown)
VH: B1 VH
VL: B1 VL with K55A, A98H
B24: hGPN18-2_H2L3 VL Y37A (antibody, V domains shown)
VH: B1 VH
VL: B1 VL with Y37A, A98H
B25: hGPN18-2_H2L3 VL V56A (antibody, V domains shown)
VH: B1 VH
VL: B1 VL with V56A, A98H
B26: hGPN18-2_H2L3 VL N35A (antibody, V domains shown)
VH: B1 VH
VL: B1 VL with N35A, A98H
B27: hGPN18-5_H2L2 (antibody, V domains shown)
VH: QVQLVQSGAEVKKPGASVKVSCKASGYTFTTYWMNWVRQAPGQGLEWIGAINPSNDYTEYNQKFKDRATMTADTSTSTVYMELSSLRSEDTAVYYCGRSYSPDYWGQGTTVTVSS
VL: DIQMTQSPSSLSASVGDRVTITCKASQNVDNHVAWFQQKPGKAPKALIYSASYRYSGVPDRFSGSGSGTDFTLTISSLQPEDFATYFCQQYKSYPFTFGGGTKLEIK
notes: humanized; also called hGPN18-5_VH2+VL2
B28: hGPN18-5_H1L3 (antibody, V domains shown)
VH: B27 VH with A68V
VL: B27 VL with F36H, S63T, T85D
notes: humanized; also called hGPN18-5_VH1+VL3; GPN18-5-VH1+VL3
B29: hGPN18-5_H2L3 (antibody, V domains shown)
VH: B27 VH
VL: B27 VL with F36H, S63T, T85D
notes: humanized; also called hGPN18-5_VH2+VL3; GPN18-5-VH2+VL3
B30: hGPN18-5_H1L2 (antibody, V domains shown)
VH: B27 VH with A68V
VL: B27 VL
notes: humanized; also called hGPN18-5_VH1+VL2
B31: hGPN18-5_H2L1 (antibody, V domains shown)
VH: B27 VH
VL: B27 VL with D60S
notes: humanized; also called hGPN18-5_VH2+VL1
B32: hGPN18-5_H3L2 (antibody, V domains shown)
VH: B27 VH with T69I, T74K
VL: B27 VL
notes: humanized; also called hGPN18-5 VH3+VL2

What follows are binders tested against T1, recombinant human soluble gpNMB … (assay: antigen ELISA).

EC50 | Binder
5.69 nM | B1
4.73 nM | B2
3.66 nM | B3
2.91 nM | B4
20.7 nM | B5
3.76 nM | B6
3.29 nM | B7
4.15 nM | B8
3.14 nM | B9
9.93 nM | B10
4.73 nM | B11
3.14 nM | B12
4 nM | B13
8.67 nM | B14
3.63 nM | B15
4.22 nM | B16
6.04 nM | B17
5.49 nM | B18
4.1 nM | B19
2.86 nM | B20
2.36 nM | B21
4.74 nM | B22
48.3 nM | B23
27.1 nM | B24
2.99 nM | B25
3.08 nM | B26

The binders below were run against T1, recombinant human soluble gpNMB … (assay: antigen ELISA, vs hGPN18-2_H2L3).

Relative binding activity | Binder
0.8 | B1
0.81 | B2
0.82 | B3
1.05 | B4
0.41 | B5
1.01 | B6
1.04 | B7
1.06 | B8
1.05 | B9
0.81 | B10
1.04 | B11
1.03 | B12
1.04 | B13
0.92 | B14
0.94 | B15
0.84 | B16
0.75 | B17
0.79 | B18
1 | B19
1.04 | B20
1.11 | B21
1.06 | B22
0.31 | B23
0.37 | B24
1.07 | B25
1.11 | B26

The binders below were run against T2, human gpNMB (Human Osteoactivin, …) (assay: SPR Biacore 8K, antibody captured on protein A, gpNMB as analyte).

Kd | koff | kon | Binder
763 nM | 0.00403 s⁻¹ | 5280 M⁻¹ s⁻¹ | B27
214 nM | 0.00153 s⁻¹ | 7150 M⁻¹ s⁻¹ | B28
190 nM | 0.00148 s⁻¹ | 7780 M⁻¹ s⁻¹ | B29
423 nM | 0.00396 s⁻¹ | 9380 M⁻¹ s⁻¹ | B30
661 nM | 0.00454 s⁻¹ | 6870 M⁻¹ s⁻¹ | B31
548 nM | 0.00436 s⁻¹ | 7950 M⁻¹ s⁻¹ | B32

Reference: patent publication EP4772193A1 (Teijin Pharma Limited, dated 2026)
